Source: publication PMC10021052, “Novel multivalent S100A8 inhibitory peptides attenuate tumor progression and metastasis by inhibiting the TLR4-dependent pathway” (Cancer Gene Therapy, 2023)
“Also recorded” adds a separate entry of the source.

Tests used:
[1] = molecular target: human TLR4/MD-2 complex (human) (UniProt O00206)
SW480 cells = assay: qPCR, S100A8-mediated IL-8 and VEGF mRNA induction in SW480 cells; format: cell-based, human; settings: Fig. 2E
Experimental: SW480 cells were treated with S100A8 in Dulbecco’s Modified Eagle Medium/HamF12 supplemented with 0.1% bovine serum albumin for cytokine induction. Total RNA was extracted using the RNeasy Mini Plus (Qiagen, Hilden, Germany). Complementary DNA was synthesized using the PrimeScript 1st Strand Synthesis kit (Takara Bio, Japan). Quantitative PCR (qPCR) analysis was performed using the PowerUp^TM SYBR^TM Green mixture (Thermo Fisher Scientific) and the StepOnePlus Real Time PCR System (Thermo Fisher Scientific). Gene expression levels were calculated from Ct values, and the relationship between the Ct value and the logarithm of the copy number of a target gene was confirmed to be on a linear line using the corresponding isolated DNA and its serial dilutions as a standard. Thus, the gene expression levels of IL-8 and VEGF were normalized against that of β-actin in each sample. The following primers were used; β-actin, 5′-[…]-3′ and 5′-[…]-3′; IL-8, 5′-[…]-3′ and 5′-[…]-3′; VEGF, 5′-[…]-3′ and 5′-[…]-3′.
Fig. 2 Identification of S100A8 binding sites to human TLR4/MD-2. […] TLR4/MD-2 recombinant proteins were immobilized to the ELISA plate. After blocking, a full length or deletion mutant of S100A8 was added to the plate. The more detailed methods are described in Materials and Methods. […] B A series of overlapping S100A8 synthetic peptides. The TLR4/MD-2 recombinant proteins were added to each well of peptide immobilized plates. The affinity to TLR4/MD-2 was determined. Data are shown as mean ± SD. C The competitive activity was determined using ELISA. Data are shown as mean ± SD. D The TLR4/MD-2 was mixed with S100A8 with/without the indicated peptides, and immunoprecipitated using an anti-TLR4 antibody. TLR4 or S100A8 was visualized. Similar results were obtained in three independent experiments. […] Total RNAs from SW480 cells with/without treatment of the peptide candidates were extracted and qPCR analysis was performed using relevant primer sets and SYBR green. Relative expression levels were compared. […] TEXT PRINTED IN THE PICTURE: (A) Full length: TLR4/MD-2 binding: + | (A) S100A8-ΔC: TLR4/MD-2 binding: − | (A) S100A8-N: TLR4/MD-2 binding: −
Fig. 4 Improvement of competitive inhibition activity by divalent peptide3A5. A The binding capacity was measured at the indicated concentration using an ELISA-based assay. Similar results were obtained in three independent experiments. B SW480 cells were pretreated with 2.5 µM of divalent peptide3A5, and then stimulated with human S100A8 recombinant protein. After 30 min, cell lysates were subjected to western blotting using the indicated antibody. The divalent peptide#3 or peptide3A5 reduced the expression of S100A8-mediated IL-8 (C) and VEGF (D) induction. Total RNAs from SW480 cells with/without treatment of the peptide candidates were extracted and qPCR analysis was performed using relevant primer sets and SYBR green. Relative expression levels were compared. Peptide #3 suppresses S100A8-mediated IL-8(E) and VEGF (F) secretion in SW480 cells.

MDSCs = assay: In vivo S100A8 stimulation, MDSC recruitment to lungs; design: species or system C57BL/6J mice; settings: recombinant S100A8 i.v., 4 h; *P < 0.05 vs control
Experimental: Balb nu/nu or C57BL/6J mice were purchased from Clea Japan Inc. (Tokyo, Japan). Mice were used for experiments at 2–3 months of age. […] For in vivo S100A8 stimulation, C57BL/6J mice were intravenously injected with mammalian-derived S100A8. Four hours after the i.v. injection, mice were sacrificed, and minced mouse lungs were digested with collagenase/dispase/DNase solution. Collected cells were incubated with anti-CD11b-PE (BD Bioscience), anti-Ly6G-FITC (BD Bioscience), and anti-Ly6C-APC (BD Bioscience) antibodies, and analyzed by a flow cytometry (Cytomics FC500; Beckman Coulter, Brea, CA, USA). […] The mice were sacrificed after 16 h, and minced mouse lungs were digested with collagenase/dispase/DNase solution. The recruitment of MDSCs or PKH-26 labeled tumor cells in the lungs was determined by flow cytometry (CytoFlex; Beckman Coulter).

[2] = test system: p38 and p65 (NF-κB) in SW480 cells; settings: ref [8]; cited from earlier work
From the text: TLR4/MD-2 dimerizes upon ligand binding. To attempt the inhibitory peptide fitted into dimerized forms, we generated a divalent peptide of peptide3A5 using Fmoc-Lys (Fmoc)-OH to form two branches in the peptide chain. […] We then examined the effect of divalent peptide3A5 on TLR4/MD-2 downstream signaling. […] Pretr ...

[3] = test system: tumor cells and macrophages; settings: ref [8]; cited from earlier work
From the text: S100A8 belongs to the S100s family and is characterized by two calcium-binding EF-hand motifs: a carboxyl-terminal EF-hand (high affinity to calcium), and an N-terminal EF-hand (low affinity to calcium) that are connected by a central hinge. Like most S100 proteins, S100A8 can form a heterodimer with S100A9 or can exist as a homodimer or monomer. Vogl et al. originally reported that S100A8-mediated cytokine induction was mediated via TLR4 [5].

[4] = test system: S100A8-mediated cell migration; settings: ref [8]; cited from earlier work
From the text: VEGF is another NFκB-mediated re ...

PD-L1 in macrophages = test system: PD-L1 in macrophages; design: method as in PMID 32198140; settings: ref [29]; cited from earlier work

human TLR4/MD-2 complex (human), sequence (O00206 24-839, chain 1 of 2): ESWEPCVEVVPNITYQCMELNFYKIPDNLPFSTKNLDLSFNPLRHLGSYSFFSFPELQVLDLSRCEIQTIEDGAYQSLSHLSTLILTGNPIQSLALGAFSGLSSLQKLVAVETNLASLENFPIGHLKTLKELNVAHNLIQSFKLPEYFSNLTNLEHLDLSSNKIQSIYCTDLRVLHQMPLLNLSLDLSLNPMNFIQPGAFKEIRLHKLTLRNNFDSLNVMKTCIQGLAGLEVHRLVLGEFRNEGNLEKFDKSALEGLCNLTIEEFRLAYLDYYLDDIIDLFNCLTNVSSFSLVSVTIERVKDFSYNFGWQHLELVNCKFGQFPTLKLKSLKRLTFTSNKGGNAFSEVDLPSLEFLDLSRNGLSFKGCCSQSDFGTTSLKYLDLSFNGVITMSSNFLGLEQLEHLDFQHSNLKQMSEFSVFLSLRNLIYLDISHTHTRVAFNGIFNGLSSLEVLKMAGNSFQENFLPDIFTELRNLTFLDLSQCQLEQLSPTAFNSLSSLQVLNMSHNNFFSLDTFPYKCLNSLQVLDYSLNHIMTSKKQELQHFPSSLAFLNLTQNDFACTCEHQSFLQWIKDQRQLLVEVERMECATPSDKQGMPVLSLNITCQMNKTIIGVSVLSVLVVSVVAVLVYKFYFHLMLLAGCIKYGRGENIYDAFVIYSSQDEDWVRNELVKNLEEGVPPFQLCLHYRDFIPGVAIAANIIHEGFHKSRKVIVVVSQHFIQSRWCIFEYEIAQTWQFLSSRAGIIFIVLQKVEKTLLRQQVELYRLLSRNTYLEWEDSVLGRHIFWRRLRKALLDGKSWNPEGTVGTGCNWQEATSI
human TLR4/MD-2 complex (human), sequence (Q9Y6Y9 19-160, chain 2 of 2, further chain): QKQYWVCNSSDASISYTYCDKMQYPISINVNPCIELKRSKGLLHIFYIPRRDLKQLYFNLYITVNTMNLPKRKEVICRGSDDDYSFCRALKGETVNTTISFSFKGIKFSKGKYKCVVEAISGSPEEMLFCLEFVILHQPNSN

B1: human S100A8 recombinant protein, full length (natural protein)
chain: MLTELEKALNSIIDVYHKYSLIKGNFHAVYRDDLKKLLETECPQYIRKKGADVWFKELDINTDGAVNFQEFLILVIKMGVAAHKKSHEESHKE
- S100A8-induced phosphorylation of p38 in SW480 cells pretreated with 2.5 µM divalent peptide3A5: fold inhibition [1]: 1.3 fold
- S100A8-induced phosphorylation of p65 (NF-κB) in SW480 cells pretreated with 2.5 µM divalent peptide3A5: fold inhibition [1]: 1.7 fold
- IL-8 production induced by S100A8 (SW480 cells): induced IL-8 production
- recruitment of MDSCs from bone marrow to lungs (MDSCs): increased the recruitment of MDSCs from the bone marrow to the lungs; also recorded: induces pulmonary recruitment of MDSCs from bone marrow
- phosphorylation of p38 MAP kinase / NF-κB activation by S100A8 [2]: induced phosphorylation of p38 MAP kinase, followed by activation of NF-κB signaling
- induction of inflammatory cytokines/chemokines by S100A8 [3]: induced inflammatory cytokines/chemokines in a TLR4-dependent manner
- cell migration induced by S100A8 [4]: induces cell migration in a TLR4-dependent manner
- PD-L1 expression in macrophages (PD-L1 in macrophages): upregulated PD-L1 in macrophages via a TLR4-dependent pathway
